We go through two molecules from patent US7261890.

Assay [1] has as its target recombinant canine IgE (canine). In words: IgE binding ELISA, COS supernatant on plate-coated recombinant canine IgE, anti-dog Fc-HRP. A general note: An ELISA detects its analyte on a solid surface through an enzyme-linked reagent.
Assay [2] has the same target. In words: IgE binding ELISA of COS supernatant; second number is the relative expression level.
The target is the same in assay [3]. In words: OD of IgE binding ELISA divided by IgG expression relative to chimeric 15A2, COS supernatant.
For assay [4] the target is unchanged. In words: IgE binding ELISA of COS supernatant; in this cell the order is reversed (2.4 is the relative expression of Table 5, 0 the OD).

B1: H74-1 caninized heavy chain with 15A2 chimeric light chain Lx (antibody, part only; not given: constant regions, V domains shown, part only)
VH: EVQLVQSAAEVKKPGASVKVSCKTSGYSFTDYFMNWVQQAPGAGLDWMGRINPFNGDPFYNQKFKGRVTLTADTSTSTAYMELSSLRAEDAAVYYCARFYYGRYYAMDYWGQGTLVTV
In the case of B1, the OD at 650 nm (IgE Binding) in assay [1] amounted to 1.3 OD 650 nm. Further, the OD of IgE Binding (printed over relative expression level) in assay [2] came to 1.3 OD 650 nm. Moreover, the Ratio IgE Binding/Expression in assay [3] turned out to be 13.

B2: H74-1 / Group 2-1 (CDR-grafted caninized 15A2, heavy and light) (antibody, part only; not given: constant regions, V domains shown, part only)
VH: EVQLVQSAAEVKKPGASVKVSCKTSGYSFTDYFMNWVQQAPGAGLDWMGRINPFNGDPFYNQKFKGRVTLTADTSTSTAYMELSSLRAEDAAVYYCARFYYGRYYAMDYWGQGTLVTV
Take B2: the OD of IgE Binding (printed over relative expression level) in assay [4] is 0 OD 650 nm.
